Molecular target: T1, CD179a (VpreB1) component of the pre-BCR surrogate light chain, on B-ALL cells (human, UniProt P12018 20-145)
T1 sequence (looked up): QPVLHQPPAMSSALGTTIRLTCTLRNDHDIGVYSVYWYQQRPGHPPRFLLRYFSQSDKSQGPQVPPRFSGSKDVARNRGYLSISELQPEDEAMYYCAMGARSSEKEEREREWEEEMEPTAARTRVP
Experiment: cell-based or functional assay

IC50 (the inhibitory concentration that causes 50% of cells to die), Nalm6 B-ALL cell line: 59 ng/mL
B1: calicheamicin-based antibody-drug conjugate (ADC) against CD179a (antibody, human IgG1, kappa, V domains shown)
VH: EVQLVESGGGLVKPGGSLRLSCAASGFTFSNFEMNWVRQAPGKGLEWVSGISSNGRYINYADSVKGRFTISRDNAKNSLYLQMNSLRAEDTAVYYCARVVDFDQDYNGFDYWGQGTLVTVSS
VL: DIQLTQSPSFLSASVGDRVTITCRASQGISTDLNWYQQKPGKAPKLLIYAASNLESGVPSRFSGSGSGTEFTLTISSLQPEDFATYYCQQSYNWPYTFGGGTKVEIKR
modifications: AcBut-calicheamicin linker-payload, DAR of 5:1, conjugated residues not stated
